The source of these data is the supplement of paper PMC10567573.

First the molecules themselves.
B1: TRIM39 (parent)
chain: CKACITRWWEDLERDFPCPVCRKT
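Also: lentivirally expressed fusions sorted by FACS into six bins by GFP to DsRed ratio, PSI derived from sequencing read proportions per bin multiplied by bin number.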

The variants in this series derive from B1. Put plainly: protein stability index of a GFP-peptide fusion (GPS, HEK-293T) (PSI 1-6); higher = more stable. The settings on record: c terminus: a fixed tail appended.
Regarding CKACWTRWWEDLERDFPCPVCRKT, the protein stability index came out at 3.99.
Regarding CKACFTRWWEDLERDFPCPVCRKT, the protein stability index stood at 4.22.
Then CKACCTRWWEDLERDFPCPVCRKT, with 4.63; and CKACLTRWWEDLERDFPCPVCRKT, with 4.25; and CKACGTRWWEDLERDFPCPVCRKT, with 3.86.
Take CKACTTRWWEDLERDFPCPVCRKT: the protein stability index came to 3.99.
In the case of CKACQTRWWEDLERDFPCPVCRKT it was 4.31.
As for CKACPTRWWEDLERDFPCPVCRKT, the protein stability index was 3.86.
Take CKACRTRWWEDLERDFPCPVCRKT: the protein stability index turned out to be 3.93.
In the case of CKACDTRWWEDLERDFPCPVCRKT it was 4.36; in that of CKACETRWWEDLERDFPCPVCRKT, 4.6.
In the case of CKACVTRWWEDLERDFPCPVCRKT it was 3.35; in that of CKACMTRWWEDLERDFPCPVCRKT, 4.22.
CKACKTRWWEDLERDFPCPVCRKT: the protein stability index was found to be 3.88.
Consider CKACNTRWWEDLERDFPCPVCRKT, for which the protein stability index amounted to 4.12.
Take CKACHTRWWEDLERDFPCPVCRKT: the protein stability index was 4.49.
Then CKACYTRWWEDLERDFPCPVCRKT, with 4.39; and CKACSTRWWEDLERDFPCPVCRKT, with 4.22.
Then CKACATRWWEDLERDFPCPVCRKT, with 4.25; and SKACITRWWEDLERDFPCPVCRKT, with 1.68; and QKACITRWWEDLERDFPCPVCRKT, with 2.3.
Then GKACITRWWEDLERDFPCPVCRKT, with 1.74.
For the variant KKACITRWWEDLERDFPCPVCRKT, the protein stability index is 1.76.
In the case of RKACITRWWEDLERDFPCPVCRKT it was 2.43.
Then DKACITRWWEDLERDFPCPVCRKT, with 2.45; and IKACITRWWEDLERDFPCPVCRKT, with 1.27.
In the case of AKACITRWWEDLERDFPCPVCRKT it was 1.94; in that of FKACITRWWEDLERDFPCPVCRKT, 1.42; in that of NKACITRWWEDLERDFPCPVCRKT, 1.67.
On to WKACITRWWEDLERDFPCPVCRKT, for which the protein stability index turned out to be 2.56.
In the case of LKACITRWWEDLERDFPCPVCRKT it was 2.31; in that of PKACITRWWEDLERDFPCPVCRKT, 2.42.
On to VKACITRWWEDLERDFPCPVCRKT, for which the protein stability index worked out at 2.27.
As to EKACITRWWEDLERDFPCPVCRKT, the protein stability index came to 2.07.
In the case of MKACITRWWEDLERDFPCPVCRKT it was 2.26; in that of YKACITRWWEDLERDFPCPVCRKT, 1.72.
Then TKACITRWWEDLERDFPCPVCRKT, with 2.06; and HKACITRWWEDLERDFPCPVCRKT, with 2.16; and CKACITREWEDLERDFPCPVCRKT, with 4.73.
Take CKACITRCWEDLERDFPCPVCRKT: the protein stability index was found to be 4.15.
Then CKACITRDWEDLERDFPCPVCRKT, with 4.42.
In the case of CKACITRFWEDLERDFPCPVCRKT it was 4.17.
Then CKACITRAWEDLERDFPCPVCRKT, with 4.07.
As to CKACITHWWEDLERDFPCPVCRKT, the protein stability index was 5.06.
In the case of CKACITWWWEDLERDFPCPVCRKT it was 3.97.
As to CKACITGWWEDLERDFPCPVCRKT, the protein stability index is 4.08.
In the case of CKACITPWWEDLERDFPCPVCRKT it was 3.93.
In the case of CKACITIWWEDLERDFPCPVCRKT it was 2.96; in that of CKACITTWWEDLERDFPCPVCRKT, 4.07; in that of CKACITKWWEDLERDFPCPVCRKT, 3.73.
As for CKACITEWWEDLERDFPCPVCRKT, the protein stability index is 3.73.
Consider CKACITFWWEDLERDFPCPVCRKT, for which the protein stability index was determined as 3.79.
In the case of CKACITCWWEDLERDFPCPVCRKT it was 3.8.
In the case of CKACITDWWEDLERDFPCPVCRKT it was 4; in that of CKACITMWWEDLERDFPCPVCRKT, 3.72.
Consider CKACITAWWEDLERDFPCPVCRKT, for which the protein stability index was 4.08.
For CKACITYWWEDLERDFPCPVCRKT, the protein stability index was 4.85.
In the case of CKACITVWWEDLERDFPCPVCRKT it was 3.28; in that of CKACITNWWEDLERDFPCPVCRKT, 3.89.
On to CKACITQWWEDLERDFPCPVCRKT, for which the protein stability index amounted to 3.93.
Then CKACITLWWEDLERDFPCPVCRKT, with 3.58; and CKACITSWWEDLERDFPCPVCRKT, with 3.98.
As for CKAHITRWWEDLERDFPCPVCRKT, the protein stability index stood at 3.14.
Then CKAIITRWWEDLERDFPCPVCRKT, with 1.59.
For the variant CKAEITRWWEDLERDFPCPVCRKT, the protein stability index is 1.88.
In the case of CKAQITRWWEDLERDFPCPVCRKT it was 2.41.
In the case of CKAAITRWWEDLERDFPCPVCRKT it was 1.72.
As for CKARITRWWEDLERDFPCPVCRKT, the protein stability index was 2.18.
For the variant CKAWITRWWEDLERDFPCPVCRKT, the protein stability index was 1.75.
In the case of CKAKITRWWEDLERDFPCPVCRKT it was 2.05; in that of CKADITRWWEDLERDFPCPVCRKT, 1.75; in that of CKAPITRWWEDLERDFPCPVCRKT, 2.1.
On to CKANITRWWEDLERDFPCPVCRKT, for which the protein stability index worked out at 2.35.
In the case of CKASITRWWEDLERDFPCPVCRKT it was 2.07.
In the case of CKAVITRWWEDLERDFPCPVCRKT it was 2.19; in that of CKATITRWWEDLERDFPCPVCRKT, 2.24; in that of CKALITRWWEDLERDFPCPVCRKT, 1.63.
In the case of CKAMITRWWEDLERDFPCPVCRKT it was 1.9; in that of CKAYITRWWEDLERDFPCPVCRKT, 1.61.
In the case of CKAGITRWWEDLERDFPCPVCRKT, the protein stability index was 1.65.
Then CKAFITRWWEDLERDFPCPVCRKT, with 2.45.
For the variant CKACIERWWEDLERDFPCPVCRKT, the protein stability index was 4.03.
In the case of CKACIGRWWEDLERDFPCPVCRKT it was 4.36; in that of CKACIARWWEDLERDFPCPVCRKT, 3.64.
In the case of CKACIHRWWEDLERDFPCPVCRKT it was 3.28; in that of CKACIWRWWEDLERDFPCPVCRKT, 3.36; in that of CKACINRWWEDLERDFPCPVCRKT, 4.38.
Then CKACIKRWWEDLERDFPCPVCRKT, with 3.57; and CKACIRRWWEDLERDFPCPVCRKT, with 3.42.
Regarding CKACIQRWWEDLERDFPCPVCRKT, the protein stability index worked out at 3.77.
Then CKACIMRWWEDLERDFPCPVCRKT, with 3.27.
Then CKACIVRWWEDLERDFPCPVCRKT, with 2.71; and CKACIPRWWEDLERDFPCPVCRKT, with 3.5.
In the case of CKACIFRWWEDLERDFPCPVCRKT it was 2.95.
